{"source": "patent US20210228499A1", "about": "(DUKE UNIVERSITY, published 2021)", "key": {"[1]": {"target": "T1, mouse GPR37 (native, on peritoneal macrophages and in tissues of wild-type mice) (mouse, UniProt Q9QY42 27-600)", "T1 sequence (looked up)": "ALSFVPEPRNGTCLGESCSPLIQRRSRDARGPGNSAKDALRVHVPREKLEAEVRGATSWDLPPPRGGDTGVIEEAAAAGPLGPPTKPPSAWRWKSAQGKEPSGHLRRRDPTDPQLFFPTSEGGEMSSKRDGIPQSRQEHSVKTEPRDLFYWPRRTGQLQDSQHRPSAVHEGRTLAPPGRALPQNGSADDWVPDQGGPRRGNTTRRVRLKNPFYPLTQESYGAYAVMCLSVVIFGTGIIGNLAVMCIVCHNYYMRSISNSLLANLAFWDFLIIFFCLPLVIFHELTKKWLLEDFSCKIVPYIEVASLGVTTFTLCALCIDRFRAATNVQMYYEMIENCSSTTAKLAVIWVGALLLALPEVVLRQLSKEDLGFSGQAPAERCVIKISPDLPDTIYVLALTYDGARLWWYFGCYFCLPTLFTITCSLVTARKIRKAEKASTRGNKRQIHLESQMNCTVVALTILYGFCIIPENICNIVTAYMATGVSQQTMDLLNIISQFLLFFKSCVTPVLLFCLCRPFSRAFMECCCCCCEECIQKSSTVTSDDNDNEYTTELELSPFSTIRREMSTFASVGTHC", "test": "cell-based or functional assay"}, "[2]": {"target": "T2, human GPR37 (hGPR37-V5, expressed in transfected HEK293 cells) (human, UniProt O15354 27-613)", "T2 sequence": "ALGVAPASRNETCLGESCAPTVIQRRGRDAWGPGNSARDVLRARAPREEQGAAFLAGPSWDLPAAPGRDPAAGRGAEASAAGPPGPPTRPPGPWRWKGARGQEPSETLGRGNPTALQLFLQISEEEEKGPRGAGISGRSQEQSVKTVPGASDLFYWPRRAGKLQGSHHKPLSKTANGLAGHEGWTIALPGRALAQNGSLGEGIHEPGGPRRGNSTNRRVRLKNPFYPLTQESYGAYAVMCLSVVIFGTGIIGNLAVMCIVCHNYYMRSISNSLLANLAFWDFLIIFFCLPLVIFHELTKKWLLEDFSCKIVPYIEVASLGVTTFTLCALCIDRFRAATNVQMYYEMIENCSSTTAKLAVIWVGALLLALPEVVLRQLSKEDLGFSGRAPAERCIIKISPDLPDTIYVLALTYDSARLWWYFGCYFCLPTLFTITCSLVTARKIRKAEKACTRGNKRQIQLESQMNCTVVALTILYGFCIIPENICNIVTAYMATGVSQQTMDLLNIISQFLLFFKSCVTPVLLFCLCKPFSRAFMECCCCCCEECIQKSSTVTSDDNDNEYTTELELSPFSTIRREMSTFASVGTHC", "test": "cell-based or functional assay"}}}
{"binder": "TALIDNNATEEILY", "note": "[prosaposin-derived 14-mer peptide (TX14)]", "values": [{"measurement": "EC50 of iCa^2+ increase in mouse peritoneal macrophages (Fluo-4AM calcium imaging)", "setting": "[1]", "result": 0.302, "unit": "µM"}, {"measurement": "EC50 of iCa^2+ increase in HEK293 cells transfected with human GPR37 (Fura-2AM calcium imaging)", "setting": "[2]", "result": 0.407, "unit": "µM"}]}
